Patent publication US20170052184A1 (published 2017)

T1: HCV Core1-169 (hepatitis C virus (HCV-1), UniProt P26664 1-169)
T1 sequence: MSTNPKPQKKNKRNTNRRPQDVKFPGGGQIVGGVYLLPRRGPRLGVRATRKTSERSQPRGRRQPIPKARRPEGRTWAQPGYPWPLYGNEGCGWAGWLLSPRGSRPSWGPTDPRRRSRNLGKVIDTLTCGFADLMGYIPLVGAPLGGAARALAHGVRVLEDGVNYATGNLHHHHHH


What was measured:
HCV Core1-169 [1] = molecular target: T1, HCV Core1-169; test: SPR sandwich, capture mAb C11-7
[2] = molecular target: T2, HCV Core 134-171-TT Peptide (hepatitis C virus (HCV-1 numbering) …); test: SPR, captured mAb, peptide analyte
T2 construct: also called ALRZ-9 peptide

HCV Core1-169 [3] = molecular target: T1, HCV Core1-169; test: SPR sandwich, capture mAb C11-14
HCV Core1-169 [4] = molecular target: T1, HCV Core1-169; test: SPR sandwich, capture mAb C11-9
HCV Core1-169 [5] = molecular target: T1, HCV Core1-169; test: SPR sandwich, capture mAb C11-3

Row | Binder | expected percent binding (HCV Core1-169 [1]) [%] | Kd [2] [nM] | koff [2] [s⁻¹] | kon [2] [M⁻¹ s⁻¹] | expected percent binding (HCV Core1-169 [3]) [%] | expected percent binding (HCV Core1-169 [4]) [%] | expected percent binding (HCV Core1-169 [5]) [%]
1 | HCV 208A-134 (antibody, V domains shown) VH: QGQMQQSGAELAKPGASVKLSCKTSGFTFSSSYISWLKQKPGQSLEWIAWIYAGTGNTNYNQKFTDKAQLTVDTSSSTAYMQLSSLTTEDSAIYYCAISGTGFTYWGQGTLVTVSA VL: EVLMTQSPLSLPVSLGDQASISCRSSQSLEHTNGNTYLEWFLQRPGQPPKLLIYKVSSRFSGVPDRFSGSGSGTDFTLKISRVEAEDLGVYYCFQGSHVPFTFGSGTKLAIKR | ≤ 1 | 2.1 | 3.8e-05 | 18000 | ≤ 1 | ≤ 1 | ≤ 1
2 | HCV 208A-1064 (antibody, V domains shown) VH: EVQLQQSGPELVKPGASVKISCKTSGYTFTEYAMHWMKQSHGKSLEWIGGINPTNGDTIYNQKFKDKAKLTVDRSSSTAYMELRSLTSDDSALFYCARRELDYFASWGQGTTLTVSS VL: DIVLTQSPASLIVSLGQTATISCRASQSVSTSRFSYLHWIQQKPGQPPKLLIKYASNLESGVPVRFSGSGSGTDFTLNIHPVEEEDTATYFCQHSWEFPFTFGSGTKLKIKR | 19.6 | 0.21 | 0.00034 | 1.6e+06 | 16.3 | 10.5 | 16.3
3 | HCV 208B-560 (antibody, V domains shown) VH: EVQLQQSGPELEKPGASVKISCKTSGYTFTEYAMHWVKQSHGMSLEWIGGINPSNGNAIYNQIFKDKATLTVDRSSSTAYMGLRSLTFGDSGVYFCVRRQLDFFDYWGQGASLTVSS VL: DIVVTQSPASLAVSLGQRATISCRASQSVSTSRYSYLHWYQQKPGQPPKLLIKYASNLESGVPARFSGSGSGTDFTLNIHPVGEEDTATYYCQHSWEFPFTFGSGTKLEIKR | 15.5 | 0.23 | 0.00026 | 1.1e+06 | 12 | 8.3 | 10.6
4 | HCV 208A-920 (antibody, V domains shown) VH: not shown VL: DIVLTQSPASLAVSLGQRATISCRASQSVSTSRYSYMHWYQQKPGQPPKLLIKYASNLESGVPARFSGSGSGTDFTLNIHPVAEEDTAAYYCQHSWEFPFTFGSGTKLEIKR | 22.9 | 0.39 | 0.00056 | 1.5e+06 | 19.1 | 13.2 | 19.3
5 | HCV 208B-251 (antibody, V domains shown) VH: QLQQSGPVLVKPGASVKISCKTSGYTFTENAMHWVKQSHGKSLEWIGGVNPNNGDTIYNQKFKGKATLTVDKSSSTAFMELRSLTSEESPVYFCVRRELDFFDYWGQGTSVTVSS VL: DIVLTQSPASLAVSLGKKATISCRASQSVSTSRYSYMHWYQQKPGHPPKLLIKYASNLESGVPARFSGSGSGTDFTLNIHPVAEEDTAAYYCQHSWEFPFTFGSGTKLEIKR | 20.1 | 0.58 | 0.00065 | 1.1e+06 | 18.2 | 12.3 | 16.6
6 | HCV 208B-556 (antibody, V domains shown) VH: QLQQSGPVLVKPGASVMISCKTSGYTFTENAMHWVKQSHGKSLEWIGGVNPNNGDTIFNQKFKGKATLTVDKSSSTAFMEFRSLTSEESTVYYCVRRELDFFDYWGQGTSVTVSS VL: DIVLTQSPASLAVSLGQRATISCRASQSVSTSRYSYMHWYQQKPGQPPKLLIKYASNLESGVPARFSGSGSGTDFTLNIHPVAEEDTATYYCQHSWEFPFTFGSGTKLEIKR | 15.3 | 0.4 | 0.0006 | 1.5e+06 | 12.7 | 8.3 | 11.5
7 | HCV 208A-159 (antibody, V domains shown) VH: QLQQSGPAQVKPGASVMISCKTSGYTFTENAMHWVKQSHGKSLEWIGGVNPNNGDTIFNQKFKDKAALTVDKSSSTAFMELRSLTSEESTVYYCVRRELDFFDYWGQGTSVTVSS VL: DIVLTQSPASLAVSLGQRATISCRASQSVSTSRYSYVHWYQQKPGQPPKLLIKYAANLESGVPARFSGSGSGTDFTLNIHPVAEEDAAAYYCQHSWEFPFTFGSGTKLEIKR | 7 | 0.45 | 0.00065 | 1.4e+06 | 5.5 | 3.3 | 4.6
8 | HCV 208A-293 (antibody, V domains shown) VH: EVQLQQSGPELVKPGASVKISCKASGFTFTEYAMHWMKQSHGKSLEWIGGINPTNGDAIYNQKFKDKAKLTVDRSSSTAYMELRSLTSDDSALFYCARRELDYFPSWGQGTTLTVSS VL: DIVLTQSPASLIVSLGQRATISCRASQSVSTSRFSYVHWIQQKPGQPPKLLIKYASNLESGVPVRFSGSGSGTDFILNIHPVEEEDTATYFCQHSWEFPFTFGSGTKLEIKR | 20.9 | 0.11 | 0.00023 | 2.1e+06 | 16.4 | 11 | 17.9
9 | HCV 208A-334 (antibody, V domains shown) VH: not shown VL: DIVLTQSPASLAVSLGQRATISCRASQSVSTSRYSYMHWYQQKPGQPPKLLIKYASNLESGVPARFSGSGSGTDFTLNIHPVAEEDTAAYYCQHSWGFPFTFGSGTKLEIKR | 20.6 | 0.34 | 0.00057 | 1.7e+06 | 15.9 | 10.3 | 17.2
10 | HCV 208A-110 (antibody, V domains shown) VH: not shown VL: DIVLTQSPASLAVSLGQRATISCRASQSVSTSRYSYMHWYQQKPGQPPKLLIKYASNLESGVPARFSGSGSGTDFTLNIHPVAEEDTAAYYCQHSWEFPFTFGSGTKLEIKR | 21.1 | 0.33 | 0.00055 | 1.7e+06 | 14.8 | 9.4 | 15.7
11 | HCV 208A-741 (antibody, V domains shown) VH: QLQQSGPVLVKPGASVMISCKTSGYTFTENAMHWVKQSHGKSLEWIGGVNPNNGDTIFNQKFKGKATLTVDKSSSTAFMELRSLTSEESTVYYCVRRELDFFDYWGQGTSVTVSS VL: DIVLTQSPASLAVSLGQRTTISCGASQSVSTSRFSYMHWYQQKPGQPPKLLIKYASNLESGVPARFSGSGSGTDFTLNIHPVAEEDTAAYYCQHSWEFPFTFGSGTKLEIKR | 22.7 | 0.41 | 0.00069 | 1.7e+06 | 21.2 | 14.2 | 19.4
12 | HCV 208A-133 (antibody, V domains shown) VH: QLQQSGPVLVGPGASVMISCKTSGYTFTENAMHWVEQSHGKSLEWIGGVNPNNGDTIFNQKFKGKATLTVDKSSSTAFMEFRSLTSEESTVYYCVRRELDFFDYWGQGTSVTVSS VL: DIVLTQSPASLAVSLGQRATISCRASQSVSTSRYSYMHWYQQKPGQPPKLLIKYASNLESGVPARFSGSGSGTDFTLNIHPVAEEDTATYYCQHSWEFPFTFGSGTKLEIKR | 13.9 | 0.41 | 0.0005 | 1.2e+06 | 9.3 | 5.8 | 9.8
13 | HCV 208A-222 (antibody, V domains shown) VH: EVQLQQSGPELEKPGASVRISCKTSGYTFTEYAMHWVKQSHGKSLEWIGGINPNNGNAIYNQIFKDKATLTVDRSSSTAYMGLRSLTFGDSGVYFCVRRQLDYFDYWGQGASLTVSS VL: DIVVTQSPASLAVSLGQRATISCRASQSVSTSRYSYLHWYQQKPGQPPKLLIKYASNLESGVPARFSGSGSGTDFTLNIHPVGEEDTATYYCQHSWEFPFTFGSGTKLEIKR | 18.8 | 0.31 | 0.00035 | 1.1e+06 | 15 | 10.7 | 15.6
14 | HCV 208B-1094 (antibody, V domains shown) VH: EVQLQQSGPELVKPGASVKISCKTSGYTFTEYAMHWMKQSHGKSLEWIGGINPTNGDTIYNQRFKDKAKLTVDRSSSTAYMELRSLTSDDSALFYCARRELDYFASWGQGTTLTVSS VL: DIVLTQSPASLIVSLGQTATISCRASQSLSTSRFSYVHWIQQKPGQPPKLLIKYASNLESGVPVRFSGSGSGTDFTLNIHPVEEEDTATYFCQHSWEFPFTFGSGTKLKIKR | 28.4 | 0.16 | 0.00025 | 1.5e+06 | 27.8 | 19.8 | 24.4
15 | HCV 208A-207 (antibody, V domains shown) VH: QGQLQQPGAEFVKPGASLKLSCRASGYTFTSYWIHWVKQRPGQGLEWIGEIDPSDSYINQNQKFRGKATLTVDKSSSTAYMELSGLTSEDSAVYYCARHYYGVLDSWGQGTTLTVSS VL: DIVLTQSPATLSVTPGDRVSLSCRASQRIYNYLHWYQQKSHESPRLLTKYASQSISGIPSRFSGSGSGTDFILTINSVETEDFGMYFCQQSNSWPLTFGAGTKLELRR | ≤ 1 | < 0.032 | < 1e-05 | 310000 | ≤ 1 | ≤ 1 | ≤ 1
